We go through 19 sequences from the DeepSol protein solubility set.

A short description of this data set: soluble on expression in E. coli; label from the status in PepcDB or PDB records.
“MGSDKIHHHHHHMRIPEEIIKLVDTPEFQRLRGVKQLGLANLVYPGANHTRFEHSLGTWYLARKLSLELQLPREDSLLIQLAALLHDIGHGPFSHTFERIYRDRLDFHDHMEVSRRIVEGKIQICEDGGELPDIISSLGYEPREVGELIVGKHKKRYLRMIIHGDIDVDQLDYLTRDAHYTGVAHGIIDLERLLTVMRVFNGELVIDEKGIEAVEGMLVARSLMYSRVYFHRTVKIAEGMLIRAVEFALDEGELEDFWKMTDDRLVIELEDLGDFPGDIIRRIRRRKLFKAAVIIGPEDLTAEEKKSLTTLYRSQKKRKKIESELAEIVGAREGEVMVELSIPELILSEPRLKQVEVNVLLSGGKVEPIGKVTPLASAIKRRQTPRWILLVATLPEYMEGVKRVWREVILE”: the “soluble on expression in E. coli” value was “not soluble”.

Consider “MPIATVCTWPAETEGGSTVVAADHASNYARKLGIQRDQLIQEWGWDEDTDDDIRAAIEEACGGELLDEDTDEVIDVVLLWWRDGDGDLVDTLMDAIGPLAEDGVIWVVTPKTGQPGHVLPAEIAEAAPTAGLMPTSSVNLGNWSASRLVQPKSRAGKR”, for which the “soluble on expression in E. coli” value was “soluble”.

Take “GRYEIRFSGAGGQGLILAGVIMAEAASIYDGKQAVQSQSYGPEARGGASKSEVIISDGPVDYPKATQCDALLALTQEACDKYSADLKEGGVLLVDSDLVTKLPPGNYQTTAFNIINTAKNDVGREIVANIVALGAMVALTGVVSKEAAEKAVLSRVPEAFVELNRKAFQMGFEKAL”: the “soluble on expression in E. coli” value is “not soluble”.

For “MGSDKIHHHHHHMRIILASSSPRRRQLMELLGIEFEVEKPDVEEEFLESPEETVRELSLRKAEWVFKKRKEEEILVIGSDTVVVLDGNILGKPESLEEAKGMLKKLSGKWHVVYTGVAFVSSETKDVIVSSTKVRFRELPESVIDYYVEKYRPLDKAGAYGIQDFAAVFVEKIEGDFFTVVGFPLGMVWQYLYEKGWWKVASKREDDKGGARVAFG”, the “soluble on expression in E. coli” value is reported as “not soluble”.

Take “MKILVALAVFFLVSTQLFAEEIGANDDLNYWSDWYDSDQIKEELPEPFEHLLQRIARRPKPQQFFGLMGKRDADSSIEKQVALLKALYGHGQISHKRHKTDSFVGLMGKRALNSVAYERSAMQNYERRRLEHHHHHH”: the “soluble on expression in E. coli” value is “not soluble”.

Take “MTQYQALIIGFGKAGKTLAATLAKTGWRVAIIEQSASMFGGTCINIGCIPTKTLVHDAEREGDFSVAMQRKAAVVNFLRDKNFHNLADLDNVDVIEGRAEFIDNHTLRVFQADGERVLRGEKIFINTGAESVIPAITGLTTTAGVFDSTGLLSLSQRPARLGILGGGYIGLEFASMFANFGTKVTIFEAAPQFLPREDRDIAQAITRILQEKGVELILNANVQAVSSKEGAVQVETPEGAHLVDALLVASGRKPATAGLQLQNAGVAVNERGGIIVDDYLRTTADNIWAMGDVTGGLQFTYISLDDFRIVRDGLLGDGKRSTRDRQNVPYSVFMTPPLSRVGLTEEQARASGATVQVVTLPVAAIPRARVMNDTRGVLKAVVDVNTQRIVGVSLLCVDSHEMINIVKTVMDADLPYTVLRDQIFTHPTMSESLNDLFSLIK”: the “soluble on expression in E. coli” value is “not soluble”.

Consider “DIELTQTPVSLSASVGETVTITCRASENIYSYLAWYQQKQGKSPQFLVYNAKTLGEGVPSRFSGSGSGTQFSLKINSLLPEDFGSYYCQHHYGTPPLTFGGGTKLEIKREQKLISEEDLM”, for which the “soluble on expression in E. coli” value was “soluble”.

Take “MSEEIKPSAPDAPTASPIVTRDEQNLVVSFLQFIRQKVSQNQATAEQAEALEVAIQCLEHSFGLDDASYAFQPSRPILELFKSAEGLPEGESALPTPSDSDISQANKLKEEGNDLMKASQFEAAVQKYNAAIKLNRDPVYFCNRAAAYCRLEQYDLAIQDCRTALALDPSYSKAWGRMGLAYSCQNRYEHAAEAYKKALELEPNQESYKNNLKIAEDKLKELESSRPAPGANPLAGLLGAMGGGPGGMPAMPGMPNMQNLMNEPGLMQAASQMMSDPALSDMFNNMMSGNGSIADLMAAGQQMAARMQETNPELIENLRRQFGPGADGGAPPPNPPQ”: the “soluble on expression in E. coli” value was “not soluble”.

Turning to “MGSDKIHHHHHHMYANKVKKIAAVHDLSGMGRVSLTVVIPILSSMGFQVCPLPTAVLSNHTQYPGFSFLDLTDEMPKIIAEWKKLEVQFDAIYTGYLGSPRQIQIVSDFIKDFRQPDSLIVADPVLGDNGRLYTNFDMEMVKEMRHLITKADVITPNLTELFYLLDEPYKADSTDEELKEYLRLLSDKGPQVVIITSVPVHDEPHKTSVYAYNRQGNRYWKVTCPYLPAHYPGTGDTFTSVITGSLMQGDSLPMALDRATQFILQGIRATFGYEYDNREGILLEKVLHNLDMPIQMASYELI”, the “soluble on expression in E. coli” value was “not soluble”.

Take “MAHKSKSPYLMYPEKEPFPILNKHSHYDHLFEEMYELEEKGEILVFRITEEYRPKYVYTRTGRIKVIPTNKLWHHKSCGQCGNIPGYPASIFWFMNKFGLDYLNEPHQTSCTAWNYHGSGTSNPVALAAVWLRNMHQAWKTGYYPLIHCGTSFGSYKETREQLIFNKELREAVKPILKKLGRLTEDGRIVIPQEIVHYSEWVHAMRDGNSRPLRKRKESPKE”: the “soluble on expression in E. coli” value is reported as “not soluble”.

For the sequence “MKAFISENVRGIYAFDENGNLIEKRYFTDKPEKVLDQLLKGEITKDLEELLNSLKEKGYDEFVFEHPELSRRAKELGFSATTEFPNIAGERLRSNPEEFLGENWFEEYYKVGVALTRMRIQEQSGARDKMVIQAIEALDDVDKVINLLVARLREWYSLHFPELDELLPKHPQYVAFVKTVGHRDNINEEVLRELGLSEEKIKKILEAKEKTMGAWMDQTDIEVVRQLAEEIDRLYQLRKKLEDYIDRAMDDVAPNLKALVGAKLAARLISLAGGLRELAMMPSSTIQVLGAEKALFRHLRTGAKPPKHGVIYQYPAINRSPWWQRGKIARALAGKLAIAARVDYFSGEYIAEELKKELEARIREIKEKYPKPPKRKREERKGKKPWKKDKKKKKKKEKPRRRAAALEHHHHHH”, the “soluble on expression in E. coli” value is reported as “not soluble”.

For the sequence “MGDILAHESELLGLVKEYLDFAEFEDTLKTFSKECKIKGKPLCKTVGGSFRDSKSLTIQKDLVAAFDNGDQKVFFDLWEEHISSSIRDGDSFAQKLEFYLHIHFAIYFLKYSVGRPDKEELDEKISYFKTYLETKGAALSQTTEFLPFYALPFVPNPMVHPSFKELFQDSWTPELKLKLEKFLALISKASNTPKLLTIYKENGQSNKEILQQLHQQLVEAERRSVTYLKRYNKIQADYHNLIGVTAELVDSLEATVSGKMITPEYLQSVCVRLFSNQMRQSLAHSVDFTRPGTASTMLRASLAPVKLKDVPLLPSLDYEKLKKDLILGSDRLKAFLLQALRWRLTTSHPGEQRETVLQAYISNDLLDCYSHNQRSVLQLLHSTSDVVRQYMARLINAFASLAEGRLYLAQNTKVLQMLEGRLKEEDKDIITRENVLGALQKFSLRRPLQTAMIQDGLIFWLVDVLKDPDCLSDYTLEYSVALLMNLCLRSTGKNMCAKVAGLVLKVLSDLLGHENHEIQPYVNGALYSILSVPSIREEARAMGMEDILRCFIKEGNAEMIRQIEFIIKQLNSEELPDGVLESDDDEDEDDEEDHDIMEADLDKDELIQPQLGELSGEKLLTTEYLGIMTNTGKTRRKGLANVQWSGDEPLQRPVTPGGHRNGYPV”, the “soluble on expression in E. coli” value is reported as “not soluble”.

Take “MVWFFEYYDGCGLAIKVKKKLYEAEGVQKVEIYETESMGKMLVIDGKIQLTELDEPFYHEMLVHVPMLSHENPRKVAVIGGGDGGALREVLKHNVERAVLVDIDRNVIDLSRKFLKIDHGAFEDERVEIAIMDGKEFLRDCEIFDVIIVDSTDPVGVSDTLFDREFFELARQKCDVISLQSQSPLIQKEYFRTLLVNSAPFERRDVYLSCVPTYPLALWSFIIGGEYDFSNLEERFERIKGKTVHYNPDVHRAAFALPEWLKKEVEACILEHHHHHH”: the “soluble on expression in E. coli” value is recorded as “soluble”.

Turning to “MRKRLLGDEHPDVAFSLNNLATVLAATNHPEEALSHRIEASNINDQIIRNIFAFSSESDRLSFLDKIRNNFDLFLSLVCNHLANSNRAKLAALDFVLKRKALTASALAAQNQAFYNGRYPQLQEKFSQLRDLSNQIIHLTFAVPETDDLATYQDNIRQLQSRHNHLQKQLAAQVPEIQLSEQVFDCQAIAAALPHNSILVEFVRFDVFDFQAVSANGETQWHPARYLAFILTAGKPNAVQMIDLGVADTIDRLIQAFRLQASDYTLPTLAWGKAPKLRVKSYNPTPAIELSQALLEPIRGLVKDCRHLIIAPDGNLNLVPFQVLPIDATSSRLLMDEYTISYLGVGREILRSKFQPSTGSISAPLIIADPDFDLSGTGDWENNTRLDVRSLQLSNQFTETGLLRAPGTRFLGESVAKKLPDAKLYLGAEALETRLTNSNCPKIMLIATHGLFQSDSQAQPVTKRRNLLSMERQRTTKVENPMLRSGLALAGANTWLAGGTLPLAAGKGFVFAQDIANLDLWANELTVLSACDTARGDIKIGEGVFGLRRAFAVAGTKTLVMSLWSVPDKVTALLMERFFDNLQSGMSRSEALDSAQNYIRNITVKELRASALGLEVLKELLAVKELSANSRIDCQEDDTPLEHPFYWGAWICQGNTNPLVNLEHHHHHH”, the “soluble on expression in E. coli” value is “not soluble”.

As to “MGSDKIHHHHHHKTLAANAVFATAFVKRDGSFGAAILSEAGKVLHAIDLPDRGHDVTFDPISKRSVVFARQPGTFAVVFDHSGRDAPQTVASISGRHFFGHGVFSPDGALLYATENDFDNAAGVIGIYDARAKFSRVGEFPTYGMGPHELLLLGDGRTMAVANGGIETHPDYGRAELNIATMKPSYVLIDRVTGDLIEKHELPASLHQLSIRHMDTDPSGTVWFGCQYRGPGTDRPLLVGRAVRGKELQLLDMPQDVLSGFRNYIGSVAANLSAGSVAVSSPEGNSLVVIDAASGRVVSSSALVEVCGLAPDGSGFIATTGAGEIIEGSGATRSEPDYVWDNHMLRIERA”, the “soluble on expression in E. coli” value is on record as “not soluble”.

On to “SSWKPRSQQPDAPLGTGANRDLELPWLEQQGPASHHRRQLGPQGPPHLVADPSKKQGPWLEEEEEAYGWMDFGRRSAEDEN”, for which the “soluble on expression in E. coli” value is given as “soluble”.

Turning to “MGSDKIHHHHHHMLLVFASCGVNKSTEDSKKTNETKVEQIATLSAGTPVQSLDPATAVDQTSVTLLANVMEGLYRLDEKNQPQPAIAAGQPKISNGGKTYTIVIRDGAKWADGTDITADDFVTAWQRVLDPKTASPNVELFAAIKNAKEISIGKQQKETLGVKSKGNKTIEIELEEPTPYFTDLLALTAYFPVQQNAVKEYGKEYGTTKENIVTNGAFTLTDLNGVGISDKWTIAKNPKYWDKKHVAMEKIKFQVVKDINTGINLYNDGQLDDAPVAGEYSKQLENNKDFIRELSATTMFLEVNQRNKKSITSNKHARQAINFAIDREAISNKILTNGSIPAKGVVPSKLVYNPKTGKDFTNSSLVFLDKSKAKDSWEKAKKELKGTDLSIDIMVNEEDLSKKLGEYLQNELQDTLDGLKVSVTAVPATLQTERLNSGNFMIALSGWQADFADPVSFLANFESKSSLNHGGYANEEYDKLLKNNSSKRLQELKDAEKLILEDAGVIPLLQIGNAKLRNQKISEMKVHSIGAKYDYKTMEIK”, the “soluble on expression in E. coli” value is recorded as “not soluble”.

“MSLRIFLCGCVHGSWEVVVNEVNKLVAKGTKIDLIIVAGDTESFRSKSDLESYNYQRQNHDLGTFHKLVSGELKLPCKMLMIGGNNEVGDMIFQLPFGGWVTPDIFFAGINSQIYFGDLLITCQSGIMNGQDYHKCISEKFPVRGCDTHLILHIREVSIFQLYGLKNVPLFVSHEWPSGIPKQYRNIPRMQFYAKSDDKNDFGCPGFVKLLNKHRPKKWYAAHLHVRFDCTLKNGTKFTGVPKVIDKRYKWYELEEYNCNPAGGFKFSGEWINIVKNTERFVKNPKLLQNLDWDEEWRKIYETMNTEDFPEKVDVMEYNDDYQIQTKKFCDSYQIYNPYKEGHHHHHH”: the “soluble on expression in E. coli” value was “soluble”.

As for “MSLEGGKGPRLRDFLSGSLATWALGLAGLVGEAEDSEGEPLWLEKRFLRLSDGALLLRVLGIIAPSSRGGPRMLRGLDGPAAWRVWNLNHLWGRLRDFYQEELQLLILSPPPDLQTLGFDPLSEEAVEQLEGVLRLLLGASVQCEHRELFIRHIQGLSLEVQSELAAAIQEVTQPGAGVVLALSGPDPGELAPAELEMLSRSLMGTLSKLARERDLGAQRLAELLLEREPLCLRPEAPSREGHHHHHH”, the “soluble on expression in E. coli” value is recorded as “soluble”.
